How the values were obtained:
Test in all cases: purified protein
Conditions in all cases: PLP-reconstituted holo-enzyme, 200 µM alpha-ketoglutarate, 500 µM NAD+, 5 U GDH, 10 mM Tris-HCl pH 8.0
purified protein [1] = substrate: CC(=O)N[C@@H](CCCN)C(=O)O; assay type: biochemical, Escherichia coli
purified protein [2] = substrate: NCCC[C@H](NC(=O)CCC(=O)O)C(=O)O; assay type: biochemical, Escherichia coli
purified protein [3] = substrate: NCCC[C@H](N)C(=O)O

B1: AstC (Escherichia coli K-12) (protein)
chain: MSQPITRENFDEWMIPVYAPAPFIPVRGEGSRLWDQQGKEYIDFAGGIAVNALGHAHPELREALNEQASKFWHTGNGYTNEPVLRLAKKLIDATFADRVFFCNSGAEANEAALKLARKFAHDRYGSHKSGIVAFKNAFHGRTLFTVSAGGQPAYSQDFAPLPADIRHAAYNDINSASALIDDSTCAVIVEPIQGEGGVVPASNAFLQGLRELCNRHNALLIFDEVQTGVGRTGELYAYMHYGVTPDLLTTAKALGGGFPVGALLATEECARVMTVGTHGTTYGGNPLASAVAGKVLELINTPEMLNGVKQRHDWFVERLNTINHRYGLFSEVRGLGLLIGCVLNADYAGQAKQISQEAAKAGVMVLIAGGNVVRFAPALNVSEEEVTTGLDRFAAACEHFVSRGSS
notes: full-length, native untagged, no plasmid; purified from E. coli BL21(DE3) by Ni-NTA and size exclusion as apo-protein, reconstituted with PLP; about 406 residues; dimer
Q: B1 was tested. Which Km (purified protein [1]) did it give?
A: Its Km is 338 µM.

Q: And the kcat (purified protein [1])?
A: Its kcat is 4.7 s⁻¹.

Q: And the kcat/Km (purified protein [1])?
A: Its kcat/Km is 13900 M⁻¹ s⁻¹.

Q: What about the Km (purified protein [2]) of the same protein?
A: Its Km is 284 µM.

Q: And the kcat (purified protein [2])?
A: Its kcat is 3 s⁻¹.

Q: And the kcat/Km (purified protein [2])?
A: The kcat/Km was 10600 M⁻¹ s⁻¹.

Q: And the Km (purified protein [3])?
A: The Km was 4,391 µM.

Q: And the kcat (purified protein [3])?
A: Its kcat is 3.5 s⁻¹.

Q: What about the kcat/Km (purified protein [3]) of the same protein?
A: The kcat/Km was 797 M⁻¹ s⁻¹.

From PMC3590144, “Determination of the Structure of the Catabolic N-Succinylornithine Transaminase (AstC) from Escherichia coli” (PLoS ONE, 2013)
